Data set [1] concerns S129-phospho-alpha-synuclein (human). The experiment in a line: EMSA. As to conditions: 57 uM stated for GST in the comparison; 10% gel; N=3; EMSA: 20 ng DNA in 20 uL, 94 mM Tris-Cl pH 8.0, 25 mM NaCl, 1 mM EDTA, 5% ficoll; on ice 20 min then RT 30 min; 10% or 6% polyacrylamide TBE gel, 100 V ….
For the next data set, the system named is alpha-synuclein (human). The experiment in a line: EMSA. As to conditions: 57 uM protein; 10% gel; N=3; EMSA: 20 ng DNA in 20 uL, 94 mM Tris-Cl pH 8.0, 25 mM NaCl, 1 mM EDTA, 5% ficoll; on ice 20 min then RT 30 min; 10% or 6% polyacrylamide TBE gel, 100 V ….

For 300 bp dsDNA, the figures for the binding signal (fraction shifted) (in data set [1]; in the data set on alpha-synuclein (human)) were 0.58 and 0.86, respectively.

The record behind these values is publication PMC6662836.
